The RNAGym collection of RNA variant scans (doi:10.1073/pnas.2313332121)
Variants at the floor of the assay were thinned out.

B1: TPR 5TU (parent)
chain: GGAUCUUCUCGAUCUAACAAAAAAGACAAAUCUGCCACAAAGCUUGAGAGCAUCUUCGGAUGCAGAGGCGGCAGCCUUCGGUGGCGCGAUAGCGCCAACGUUCUCAACUAUGACACGCAAAACGCGUGCUCCGUUGAAUGGAGUUUAUCAUG

Variants of: B1
Test: polymerase ribozyme fitness, log enrichment relative to wild type (log ratio); higher = more active; in vitro selection for triplet polymerase activity
Outline: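 Fitness measures genotype enrichment against wild-type enrichment on a logarithmic scale, with inverse-variance-weighted averaging of replicates. The logarithm is base 2, and genotypes were kept only with ≥10 input reads and ≥1 read per output in Illumina sequencing. The sequenced libraries came from one triplicate in vitro selection round, including frozen incubation at −7 °C, of PCR-built, transcribed mutant libraries of each subunit of a heterodimeric triplet polymerase ribozyme.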

Variant	polymerase ribozyme fitness (log ratio)
A22U A41C A52U G124U	-2.3
A22U A23C	-4
A22G U44A C85A	≤ -4.2
A22C C35G U44A A60G C76A C95U G128A A150C U151G	≤ -4.2
A23C C27U A29G C87U A110G	≤ -4.2
A22U C57U G70A G81C G83C G100C A106C G133C	≤ -4.2
A21U C85U	-0.171
A23C A47G C96A	≤ -4.2
A22C A52G A106C C118U A142G	-3.06
A23C G141C	-3.64
A21G C57A G81C A97G U101C U135C	-1.99
A22C C32G C43G G92A C114U C118G U139A	≤ -4.2
A23G C35U C51U C93G A121G A122U	≤ -4.2
A23C A60U G84U C105A	≤ -4.2
A23C G133A U135C G141A A150C	≤ -4.2
A22U A47G U56C G92C C105U	-3.13
A22U U82G C93A G124U C125U	-2.61
A21C U56A C93A A121C U146G C149U	-2.29
A21U C76G	≤ -4.2
A22U C57G C93G U151G	≤ -4.2
A21U G48C G83A C118G U145A	-2.76
A21U A23U A29C C35G G48A	≤ -4.2
A21G C36U C57A	-0.735
A21U A39C U90C C95U A97U	≤ -4.2

Variant	polymerase ribozyme fitness (log ratio)
A22U G143C	-1.09
A21U U44A C93G G94C	≤ -4.2
A22C C96A A97U U101C	-1.53
A22U G50C U53G G88C C93U C96U C108U	≤ -4.2
A21G G42A A49C A66U U82C C87U U135G U145A U148A	≤ -4.2
A22C C131G	-3.49
A23C C35A C36G C54A A137G U148G	≤ -4.2
A22C C27G A66U U145C	≤ -4.2
A23G A26U G94C A110C	≤ -4.2
A21U A29U A66U C76A C93G	≤ -4.2
A22U G25C G48C A122U	≤ -4.2
A23G G86A G100A	≤ -4.2
A22G U144C	0.51
A22U A26U	-2.88
A23C G25C C27G U53A C54G A66G G80A A91G G92A C99U	≤ -4.2
A23C U53A C93U U134G	≤ -4.2
A22G C38U C95U A107C G128A	≤ -4.2
A23C U56A G86U A115G	≤ -4.2
A22U A30G C85G U104A C105A U111G	≤ -4.2
A21U G84A G141A	0.99
A21G C32G G34C U56A G59C U82G G88U C103G G140U	≤ -4.2
A21U C38A G50C U55G C69A C76A G80A U90G	≤ -4.2
A21U A60G	0.987
A21G C38U A47C U90A C96A A137U	≤ -4.2

Variant	polymerase ribozyme fitness (log ratio)
A22U A37U C95U U146A	-1.67
A22C A28C A40G C43U U56G C85U	≤ -4.2
A23C G58A G62A C87A C116G U135G	≤ -4.2
A21G A41C U56G G65A G141U	-3.42
A21G C27G U33C G62U G81U C96U C105A A113U A122U	≤ -4.2
A22U G94A	-0.557
A22G G92A C108G	≤ -4.2
A22G C32U A120G C125U	-3.24
A21U G141A	1.36
A22U A52G C75U G83U U134C A142C	-3.51
A21U C63U G84A	-0.545
A21U A24U A52G G71U U90C C123U G126U U144A A147C U151A	≤ -4.2
A23G U44A G88A	-4.1
A23C C43U A47C C57G C87A A121G G143C U144G	≤ -4.2
A21U U82C	0.17
A21U G34A G83C	-2.46
A23C A30U G50A C54A C93G C95U G124A	≤ -4.2
A21U U55A	-0.879
A23C A39U G46U U90A C96A C99U C114G G141C	≤ -4.2
A22U A106G	1.21
A22G C54U	0.651
A21U C54U C63U G68A A73G C93G C108G U148G	≤ -4.2
A22U C27G G50C G58C A97G C103G A110U U139A	≤ -4.2
A21U C93A	-1.74

Variant	polymerase ribozyme fitness (log ratio)
A22C C36U C51A C75G C87U	≤ -4.2
A23C A64G G70C	≤ -4.2
A21G G46C U82G G88U C95G A98C	≤ -4.2
A22U A39U U44G C51A G141C U146C A150G	≤ -4.2
A23G A49U A60G A119U A120U A122C	-3.98
A21U A39U U61G G92U C108A G141A	≤ -4.2
A21U G136U	-2.65
A21U A30G	-3.62
A22C U56A C57U U104G U135C	-3.35
A22U A24U U44A C93A C96U C118U	≤ -4.2
A22G U56A C96G U101C G143A U148A	≤ -4.2
A21U A26G G86U C118U	≤ -4.2
A22C A60G C87U	0.179
A21U G83C C95U	-1.58
A22C C51A C93G A98C C116U U135C	≤ -4.2
A21U A39C G58A G94C C125G U148G	≤ -4.2
A23C A40U C95U U134A U151A	≤ -4.2
A22C G42U A49G C51U G92A U130G	≤ -4.2
A22U C95U C103G	-1.55
A22G U53C U82G A98U	0.397
A21C U56G G59A C72U A122U	-0.846
A23C U44C U55G C57A C93U U145A	≤ -4.2
A21U A39U C43G G50C G92A G141U	≤ -4.2
A21U A37C A49G A52U A91C	≤ -4.2

Variant	polymerase ribozyme fitness (log ratio)
A21U C87U C96U C131G	≤ -4.2
A23G C35U U56A C85A C118U G124U	-4.08
A21U A41G	1.06
A22U G58C C87U U135C	-2.68
A22C G42C C69G A91U	≤ -4.2
A22C A47C A73U G83U G84A C95U C103G C116U G140C	≤ -4.2
A21G C85A	-1.12
A21G C85U	-0.132
A21G C93A C103U	-1.75
A22U C76U	0.515
A23G C32G C57U G74A C93U U101G A137U	≤ -4.2
A22G C85U G133C	-1.48
A22U G46A	0.387
A22C A26U C43U C76A C93G C118G	≤ -4.2
A22U A24G U31A U56G C79U U90G C95U A97C A120U C125G	≤ -4.2
A21U C79G C96U C105U U134A	≤ -4.2
A22U A52U U78A C85U U127A A137C	≤ -4.2
A21U C27G C93U A138C A147C	≤ -4.2
A22C A121U	-0.324
A22U C27U G86U	-3.28
A22G C51G A91U G94U U144C	≤ -4.2
A22C U53A G84C G112A C129A U134G A147C	≤ -4.2
A23C C51U G58A C75U C85G G143A U145G	≤ -4.2
A21U A49G A98G	-0.555

Variant	polymerase ribozyme fitness (log ratio)
A21U A64C U145G	≤ -4.2
A21G G42A G50C C93G G136U	≤ -4.2
A22U G71A	-2.64
A22U U55G A73C G86A C116A A142U	≤ -4.2
A22C G84C G133U	≤ -4.2
A22U G50U C96A G136C A142G	≤ -4.2
A22U A30U C95U U134A	≤ -4.2
A23C G67A A73U C96U G140C	≤ -4.2
A23G G83A G94A C125U A147C	≤ -4.2
A21G A22U G67A G86C C96U G117A	≤ -4.2
A22U A49U G81U G86C G141C	-4.13
A21U C57A A89U	-0.571
A21U C96G G143U	-3.69
A22C G62U A73U G88U C99U C118A U144C	≤ -4.2
A23C A39G C63U U104C C108G U135C	≤ -4.2
A22U A150C	-2.85
A21U U56A G140A G141A	-4.17
A22G U31C G94C	0.086
A22U G80A	0.375
A22C U102G A110G	≤ -4.2
A23G A73U G81C	-4.17
A22C A39G U144C	-4.03
A23G A40C G141C	-3.82
A22U A89U	0.229

Variant	polymerase ribozyme fitness (log ratio)
A22C G42U A73U G81C A91U C96U A107G G143C	≤ -4.2
A22C A29C G68A G81A C85A C105G A142U	≤ -4.2
A21G G58A A122U U145G	0.687
A22U C54A A91G	-3.53
A21G A52C C75G C85U A89G C96G A150G	-3.89
A21U A60C C87A A98G G100C	≤ -4.2
A23G C85U	-2.38
A22C C57U A60U C69G	-1.7
A23C G34U C43U A60G C132U	-4.02
A22U C57U U78A C79U G84C G117C	≤ -4.2
A23C C108G A115G A138U U148C	≤ -4.2
A22C A41C G50A A115G	-3.63
A23C C57U G74C G92U U102A A115C G143C U151A	≤ -4.2
A22U U55A G94A A98U U135A	-2.29
A23C A60G C96A C118U	≤ -4.2
A21U A26C C69A G84U	-3.67
A22C A28U G62A G65C U90A C99U C108U C116G	≤ -4.2
A22U G86U	-1.05
A22C C27G C99U A106U G140U A147G	≤ -4.2
A21U C85U G124A G126A G136A	-3.04
A23G C54G U56A A142C	≤ -4.2
A21U C51U G126U	0.375
A22C U33A G50A A66U C93U G100C A138G C149A	≤ -4.2
